Experimental data reported in patent US7528244.

Biological target: T1, caspase-3, P42574
T1 chain: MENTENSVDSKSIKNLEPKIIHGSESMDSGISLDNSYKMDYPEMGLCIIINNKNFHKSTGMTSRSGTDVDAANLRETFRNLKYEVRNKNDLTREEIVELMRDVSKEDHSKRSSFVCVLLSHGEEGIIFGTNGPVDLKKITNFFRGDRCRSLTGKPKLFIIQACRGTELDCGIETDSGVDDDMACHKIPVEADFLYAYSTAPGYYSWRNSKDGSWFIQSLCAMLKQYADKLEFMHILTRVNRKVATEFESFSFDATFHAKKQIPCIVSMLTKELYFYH

B1: caspase-8 (217-479) (protein)
chain: SESQTLDKVYQMKSKPRGYCLIINNHNFAKAREKVPKLHSIRDRNGTHLDAGALTTTFEELHFEIKPHDDCTVEQIYEILKIYQLMDHSNMDCFICCILSHGDKGIIYGTDGQEAPIYELTSQFTGLKCPSLAGKPKVFFIQACQGDNYQKGIPVETDSEEQPYLEMDLSSPQTRYIPDEADFLLGMATVNNCVSYRNPAEGTWYIQSLCQSLRERCPRGDDILTILTEVNYEVSNKDDKKNMGKQMPQPTFTLRKKLVFPSD
  processing of 35S-labeled caspase-3 precursor by in vitro translated protein: In vitro translated Casper (192-480) could not process caspase-3, whereas in vitro translated caspase-8 (217-479) could
